Laboratory results from patent US20230067757A1 (NOVAROCK BIOTHERAPEUTICS, published 2023).
Where two headings read alike, the source gives them in different places.

Experiments:
[1] = target: human claudin 18 isoform 2 (claudin 18.2) (human); assay: cell-based or functional assay
[2] = target: T1, human claudin 18 isoform 2 (claudin 18.2) (human); assay: immunofluorescence imaging, CHO-CLDN18.2 cells (FIG. 3B); Table 5 prints 3.0
T1 construct: Recombinant on transfected CHO cells (CHO-CLDN18.2) or endogenous on tumor cell lines PATU8988S, NUGC-4, KATOIII; the cell line is named under assay; also called CLDN18.2
Experimental: (§1) The specific cellular binding affinity of anti-Claudin18.2 antibodies was tested on CHO-CLDN18.2 (transfected CHO cell expressing recombinant human CLDN18.2) and CHO-CLDN18.1 (transfected CHO cell expressing recombinant human CLDN18.1) cells. The cells were plated in complete media containing F12 with 10% FBS, then incubated overnight at 37° C., anti-Claudin18.2 antibodies were serial diluted and added to the assay plates, incubated at 4° C. for 2 hours, followed by fixing cells and further staining the cells for 30 minutes with Alexa Fluor® 488 Goat Anti-Human IgG (H+L) secondary antibody, invitrogen Cat #A-11013 for detection. The binding was assessed by imaging the cells and quantifying the fluorescence intensity using a Biotek Cytation.

[3] = target: T1, human claudin 18 isoform 2 (claudin …); assay: immunofluorescence imaging, CHO-CLDN18.2 cells, serial dilution
Experimental: as §1

[4] = target: T2, human claudin 18 isoform 1 (claudin 18.1) (human, UniProt P56856 1-261); assay: immunofluorescence imaging on CHO cells expressing human CLDN18.1, antibody at 10 µg/ml
T2 construct: Recombinant on transfected CHO cells (CHO-CLDN18.1); also called CLDN18.1
Experimental: as §1

[5] = target: T1, human claudin 18 isoform 2 (claudin …); assay: imaging, PATU8988S cells (endogenous CLDN18.2); ++ = EC50 between 20 nM and 100 nM
[6] = target: T1, human claudin 18 isoform 2 (claudin …); assay: imaging, PATU8988S cells (endogenous CLDN18.2); ++++ = EC50 less than 2 nM
[7] = target: T1, human claudin 18 isoform 2 (claudin …); assay: immunofluorescence imaging, CHO-CLDN18.2 cells (FIG. 3C); Table 5 prints 0.8
Experimental: as §1

[8] = target: T1, human claudin 18 isoform 2 (claudin …); assay: cell-based or functional assay; remark: listed apart in the source
[9] = target: T1, human claudin 18 isoform 2 (claudin …); assay: cell-based or functional assay; remark: listed apart in the source
[10] = target: T1, human claudin 18 isoform 2 (claudin …); assay: imaging, PATU8988S cells (endogenous CLDN18.2); ++++ = EC50 less than 2 nM; remark: listed apart in the source
Experimental: (§2) Tumor cells were plated in complete media containing RPMI1640 with +10% FBS, then incubated overnight at 37° C., Claudin18.2 antibodies were serial diluted and added to the assay plates, incubated at 4° C. for 2 hours, followed by fixing cells and further staining the cells for 30 minutes with Alexa Fluor® 488 Goat Anti-Human IgG (H+L) secondary antibody (invitrogen Cat #A-11013) for detection. The binding was assessed by imaging the cells and quantifying the fluorescence intensity using a Biotek Cytation.

[11] = target: T1, human claudin 18 isoform 2 (claudin …); assay: imaging, PATU8988S cells (endogenous CLDN18.2); +++ = EC50 between 2 nM and 20 nM
Experimental: as §2

[12] = target: T2, human claudin 18 isoform 1 (claudin …); assay: imaging, CHO-CLDN18.1 cells, single concentration (FIG. 3A)
Experimental: as §1

[13] = target: T2, human claudin 18 isoform 1 (claudin …); assay: imaging, CHO-CLDN18.1 cells, dose titration
Experimental: as §1

T2 sequence (P56856 whole entry, canonical isoform): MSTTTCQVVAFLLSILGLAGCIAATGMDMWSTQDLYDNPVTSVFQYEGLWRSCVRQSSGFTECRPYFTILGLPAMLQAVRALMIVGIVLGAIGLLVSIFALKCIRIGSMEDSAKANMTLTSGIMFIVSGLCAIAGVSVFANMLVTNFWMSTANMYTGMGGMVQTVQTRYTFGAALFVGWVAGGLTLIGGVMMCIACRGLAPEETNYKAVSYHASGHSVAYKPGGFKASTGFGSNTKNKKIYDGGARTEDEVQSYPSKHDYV

Binder	EC50 [3]	binding result [4]	ADCC EC50, CHO-18.2 target cells (mouse FcγRIV reporter bioluminescence) [8]	EC50 [10]	endocytosis derived cell toxicity EC50, CHO-18.2 cells (anti-IgG Fc-MMAF co-internalization) [1]	endocytosis derived cell toxicity EC50, CHO-18.2 cells (anti-IgG Fc-MMAF co-internalization) [9]	also measured
Ms2 (antibody, V domains shown) VH: QVQLKESGPGLVAPSQSLSITCTVSGFSLTSYGVHWVRQPPGKGLEWLGVIWAGGSTNYNSALMSRLSISKDNSKSQVFLKMNSLQTDDTAMYYCARDFTTATGFDYWGQGTTLTVSS VL: DIVMTQSPSSLSVSAGEKVTMSCKSSQSLLNSGNQKNYLAWYQQKPGQPPKLLIYGASTRESGVPDRFTGSGSGTDFTLTISSVQAEDLAVYYCQNDHSYPFTFGSGTKLEIK	3 nM	no binding (tested: 10 µg/ml)	–	–	2.55 nM	–	EC50 [2]: 2.8 nM; EC50 [5]: 20 to 100 nM
Ms11 (antibody, V domains shown) VH: QVQLQQSGAELVKPGASVKMSCKAFGYTFTTYSIEWMKQNHGKSLEWIGNFRPYNDDTKCNEKFKGKAKLTVEKSSSTVYLELSRLTSDDSAVYYCARGSYGNSFAYWGQGTLVTVSA VL: DIVMTQSPSSLSVSAGEKVTMSCKSSQSLLNSGNQKNYLAWYQQKPGQPPKLLIYGASTRESGVPDRFTGSGSGTDFTLTISSVQAEDLAVYYCQNDHSYPFTFGSGTKLEIK	3.3 nM	no binding (tested: 10 µg/ml)	–	–	1.3 nM	–	EC50 [5]: 20 to 100 nM
Hu-12 (antibody, V domains shown) VH: EVRLLESGGGLVQPGGSLRLSCIASGFTFSSYVMSWVRQAPGKGLEWVSGISGSGGSTYYADSVKGRFTISRDNSKNTLYLQISSLRAEDTAVYYCTKAPTLWWFFDLWGRGTLVTVSS VL: DIQVTQSPSFLSASVGDRVTITCRASQGIRSYLAWYQQKPGKAPKLLIYAASTLQSGVPSRFSGSGSGTEFTLTISSLLPEDFATYYCQQLNSYPLTFGGGTKVEIK	1.2 nM	no binding (tested: 10 µg/ml)	2.26 nM	< 2 nM	–	2.01 nM	–
Hu-2 (antibody, V domains shown) VH: QLRLQESGPGLVKPSETLSLTCAVSGGSISSSRSYWGWIRQPPGKGLELIGSIYYSGSTYYNPSLKSRVTISVDTSKNQFSLKLTSVTATDTAVYYCARQTLRYFDWLSPFDYWGQGTLVTVSS VL: EIVMTQSPATLSLSPGERATLSCRASQSVRSNYLSWYQQKPGQAPRLLIYGTSTRATGIPARFSGSGSGTDFTLTISSLQPEDFAVYFCQQDYNLPITFGQGTRLEIK	1.5 nM	no binding (tested: 10 µg/ml)	3.51 nM	–	–	1.43 nM	EC50 [11]: 2 to 20 nM
Hu-6 (antibody, V domains shown) VH: QMQLRESGPGLVKPSETLSLTCTVSNGPISSSRYYWGWIRQPPGKGLEWIGSFHYSGSTYYKPSLKSRVTISADTSKNQLSLELSSVTAADTAVYYCARLVLRYFDWLGYFDLWGRGTLVTVSS VL: EFVMTQSPATLSLSPGERATLSCRASQSIRSNYLSWYQQKPGQAPRLLIYGASTRATAIPARFSGSGSGTDFTLTISSLQPEDFAVYYCQQDYNLPITFGQGTRLEIK	1.5 nM	–	4.8 nM	–	–	1.69 nM	EC50 [11]: 2 to 20 nM
Hu-10 (antibody, V domains shown) VH: EVQLSESGGALVQPGESLRLSCAASGFTFSSYAMTWVRQAPGKGLEWVSSLSGSGRSTYYAASIKGRFTISRDNSKNTLYLQMSSLRAEDTAIYYCAKSLSYYHYYFDYWGQGTLVTVSS VL: DIQLTQSPSFLSASVGDRVPITCRASQDISNYLAWYQQKPGKAPKLLIYSASTLQSGVPSRFSGSGSGTEFTLTISSLQPEDFASYHCQQVKTYPLTFGGGTKVEIK	1.5 nM	no binding (tested: 10 µg/ml)	1.25 nM	< 2 nM	–	0.85 nM	–
Hu-17 (antibody, V domains shown, Human V regions (Trianni mice)) VH: QVQLVQSGAEVKRPGASVKVSCRVSGYTLTALSMYWVRQAPGKGLEWMGGFDPEDGETIYAQKFQGRVTMTEDTSTGTAYMELSSLKSEDTAVYYCATRLRYFDWNYWGQGTPVTVSS VL: DIVMTQTPLSSPVTLGQPASISCRSSQSLVHSDGNTYLSWLQQRPGQPPRLLIYKVSKRFSGVPDRFSGSGAGTDFTLKISRVEAEDVGVYYCTQGTQFPRTFGQGTKVEIK	6.2 nM	–	–	–	–	–	binding result [13]: no binding (tested: 133.4 nM)

Binders with a lower EC50 [3], results first:

EC50 [3]	binding result [4]	ADCC EC50, CHO-18.2 target cells (mouse FcγRIV reporter bioluminescence) [8]	EC50 [10]	Binder	endocytosis derived cell toxicity EC50, CHO-18.2 cells (anti-IgG Fc-MMAF co-internalization) [1]	endocytosis derived cell toxicity EC50, CHO-18.2 cells (anti-IgG Fc-MMAF co-internalization) [9]	also measured
1.1 nM	–	–	–	Ms14 (antibody, V domains shown) VH: EVQLQQSGPELVKPGASVKMSCKASGYTFTRYIIHWVKQKPGQGLEWIGYFNPYNDDSKNNEKFKGKATLTSDKSSSTAYMEISSLTSEDSAVYYCAKLRQERIAYWGQGTLVTVSA VL: DIQMNQSPSSLSASLGDTITITCHVSQNIDVWLSWYQQKPGNIPKLLIYKASNLHTGVPSRFSGSGSGTGFTLTISSLQPEDIATYYCQQGQSYPLTFGAGTKLELK	1.02 nM	–	binding result [12]: no binding (tested: 10 µg/ml); EC50 [5]: 20 to 100 nM
1.1 nM	no binding (tested: 10 µg/ml)	1.1 nM	< 2 nM	Hu-9 (antibody, V domains shown) VH: EVQLLESGGGLVQPGGSLRLSCAASGFTFSSFAMTWVRQAPGKGLEWVSSLSGSGRSTYYAASMKGRFTISRDNSKNTLYLQMNSLRAEDTAIYYCAKSLSYYHYYFDYWGQGTLVTVTS VL: DIQLTQSPSFLSASVGDRVPITCRASQGISNFLAWYQQKPGKAPELLIHSASTLQSGVPSRFSGSGSGTEFTLTISNLQPQDFATYYCQQVNSYPLTFGGGTKVEIK	–	0.85 nM	–
1 nM	no binding (tested: 10 µg/ml)	3.52 nM	< 2 nM	Hu-7 (antibody, V domains shown) VH: EVQLLESGGGLVQPGGSLRLSCAASGFTFSSYVMSWVRQAPGKGLEWVSTISGSGGSTYYADSVKDRFTISRDNSKNTLYLQMNSLRAEDTAVYYCGKPLLGGTGLWDYWGQGTLVTVSS VL: not shown	–	1.65 nM	–
0.8 nM	no binding (tested: 10 µg/ml)	–	–	Ms4 (antibody, V domains shown) VH: EVQLQQSGPELEKPGASVKISCKASGYSFTGYNMNWVKQSNGKSLEWIGNIDPYYGGTRYNQKFKGKATLTVDRSSSTAYMQLKSLTSEDSAVYYCARLGLGNAMDYWGQGTSVTVSS VL: DIVMTQSPSFLTVTAGEKVTMSCKSSQSLLNSGNQKSYLTWYQQKPGQPPKLLIYWASTRESGVPDRFTGSGSGTDFTLTISSVQAEDLAVYYCQNDYYYPFTFGSGTELEIK	0.98 nM	–	EC50 [6]: < 2 nM; EC50 [7]: 0.75 nM
0.8 nM	–	–	–	Ms16 (antibody, V domains shown) VH: QVQLQQSGAELVRPGTSVKVSCKASGYAFTNYLIEWIKQRPGQGLEWIGVINPGSGGTNYNEKLKGKATLTADKSSSTAYMQLSSLTSGDSAVYFCARYVKGNALDYWGQGTSVTVSS VL: DIVMTQSPSSLTVTAGEKVTLSCKSSQSLFNSGNQKNYLTWYQQKPGQPPKLLIYWASTRESGVPDRFTGSGSGTDFTLTISSVQAEDLAIYYCQNSYSFPLTFGAGTKLELT	1 nM	–	binding result [12]: no binding (tested: 10 µg/ml); EC50 [6]: < 2 nM
